Results reported in US20230331821A1 (VIR BIOTECHNOLOGY, published 2023).
Like-named read-outs stand apart in the source and are kept apart here.

Key:
SARS1 Spike [1] = experiment: ELISA, antigen coated on the plate, OD 405 nm
SARS1 Spike [2] = experiment: ELISA, antigen coated on the plate, OD 405 nm; remark: listed apart in the source

B1: S110 (antibody, V domains shown)
VH: QVQLVESGGGLVQAGGSLRLSCAASGRTFSSAGMAWFRQAPGKEREFVATSNWNGGDTDYADSVKGRFTISRDNAKNTVYLQMNNLKPEDTAVYYCAAHLQKYGGDYYARIWGQGTQVTVS
SARS1 Spike [1]
  EC50 (read off the curve): ~0.03 µg/mL
SARS1 Spike [2]
  EC50 (read off the curve): ~0.03 µg/mL
